Data taken from US20100233173A1 (AstraZeneca / MedImmune, published 2010).

Target: T1, EphA2 (human, UniProt P29317 25-534, limits assumed)
T1 construct: also called biotinylated EphA2; soluble EphA2 antigen
Test: BIAcore, ovalbumin immobilised, antigens injected one after the other
Protocol: FIG. 36. […] The upper curve represents the binding activity of three distinct epitope binding domains present on multispecific epitope binding protein “P1” represented in FIG. […]. Soluble EB, EA, and EphA2 antigens were added to immobilized P1 and the relative binding was measured. The three distinct inflections referenced by the arrows corresponding to the three antigens indicates binding to the immobilized P1. Ovalbumin (bottom curve) was used as a negative control.
Methods: Triple-specific binding ability of P1 (FIG. 3D) was assessed by BIAcore by injecting the three antigens EB, EA and EphA2 sequentially over a P1-coated chip. When the P1 epitope had been saturated with the first antigen (EB), the second antigen (EA) was injected, followed by the injection of the third antigen (EphA2). Ovalbumin was used as a negative binding control.

T1 sequence (P29317 25-534 limits assumed): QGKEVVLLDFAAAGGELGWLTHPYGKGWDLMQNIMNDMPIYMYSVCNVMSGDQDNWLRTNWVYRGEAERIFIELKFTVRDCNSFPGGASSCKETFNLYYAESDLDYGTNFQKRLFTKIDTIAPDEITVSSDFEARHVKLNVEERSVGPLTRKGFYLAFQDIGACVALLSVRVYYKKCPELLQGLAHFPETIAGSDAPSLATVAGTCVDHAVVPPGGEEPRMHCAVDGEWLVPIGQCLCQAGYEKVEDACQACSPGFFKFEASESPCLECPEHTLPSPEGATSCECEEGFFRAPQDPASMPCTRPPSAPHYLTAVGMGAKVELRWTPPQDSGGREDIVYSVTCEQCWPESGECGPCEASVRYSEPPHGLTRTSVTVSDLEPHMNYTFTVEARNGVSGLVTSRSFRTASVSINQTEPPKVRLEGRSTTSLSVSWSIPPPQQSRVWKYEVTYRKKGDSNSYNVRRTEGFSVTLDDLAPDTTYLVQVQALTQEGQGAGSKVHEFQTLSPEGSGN

binding result: no binding
B1: Ovalbumin (other, UniProt P01012 2-386, looked up)
chain: GSIGAASMEFCFDVFKELKVHHANENIFYCPIAIMSALAMVYLGAKDSTRTQINKVVRFDKLPGFGDSIEAQCGTSVNVHSSLRDILNQITKPNDVYSFSLASRLYAEERYPILPEYLQCVKELYRGGLEPINFQTAADQARELINSWVESQTNGIIRNVLQPSSVDSQTAMVLVNAIVFKGLWEKAFKDEDTQAMPFRVTEQESKPVQMMYQIGLFRVASMASEKMKILELPFASGTMSMLVLLPDEVSGLEQLESIINFEKLTEWTSSNVMEERKIKVYLPRMKMEEKYNLTSVLMAMGITDVFSSSANLSGISSAESLKISQAVHAAHAEINEAGREVVGSAEAGVDAASVSEEFRADHPFLFCIKHIATNAVLFFGRCVSP
notes: also called immobilized ovalbumin
